Results as given in patent US20050215629.
Changes are numbered by the printed parent chain.

B1: Flag-tagged PRL-1 (protein)
chain: MARMNRPAPVEVTYKNMRFLITHNPTNATLNKFIEELKKYGVTTIVRVCEATYDTTLVEKEGIHVLDWPFDDGAPPSNQIVDDWLSLVKIKFREEPGCCIAVHCVAGLGRAPVLVALALIEGGMKYEDAVQFIRQKRRGAFNSKQLLYLEKYRPKMRLRFKDSNGHRNNCCIQ
B2: GST fusion protein of PRL-1R86 (protein)
chain: B1 chain with S86R
B3: Flag-tagged PRL-1R86 mutant (protein)
chain: B1 chain with S86R
B4: GST fusion protein of human PRL-1 (protein)
chain: B1 chain
B5: GST fusion protein of human PRL-2 (protein)
chain: MNRPAPVEISYENMRFLITHNPTNATLNKFTEELKKYGVTTLVRVCDATYDKAPVEKEGIHVLDWPFDDGAPPPNQIVDDWLNLLKTKFREEPGCCVAVHCVAGLGRAPVLVALALIECGMKYEDAVQFIRQKRRGAFNSKQLLYLEKYRPKMRLRFRDTNGHCCVQ

Target: T1, synthetic phosphotyrosine peptide Arg-Arg-Leu-Ile-Glu-Asp-Ala-Glu-Tyr-Ala-Ala-Arg-Gly, wherein the tyrosine is phosphorylated
T1 chain: RRLIEDAEYAARG

Protein	immunocomplex PTPase assay (anti-Flag immunocomplexes from NIH3T3 transfectants)	immunocomplex PTPase assay (anti-Flag immunocomplexes from WM9 transfectants)	in vitro PTPase assay
B1	a markedly higher PTPase activity (about 23 folds) over that of control transfectants	showed phosphatase activities well above the background activity of the vector control cells	
B2			showed in vitro PTPase activity similar to that of wild type PRL-1
B3		showed phosphatase activities well above the background activity of the vector control cells	
B4			PTPase activity of recombinant PRL-1, PRL-2 and PRL-3 in dephosphorylating a synthetic phosphotyrosine peptide substrate
B5			PTPase activity of recombinant PRL-1, PRL-2 and PRL-3 in dephosphorylating a synthetic phosphotyrosine peptide substrate
